Laboratory results taken from publication PMC2858642.

Target: His6-Bcl-2ΔTM G154A/G155A mutant
Assay: fluorescence polarisation

Kd: 0.03 µM
Substance: His6-Bcl-2ΔTM G154A/G155A mutant (domain or fragment)
